Patent US20130315946A1

Molecular target: complement C3
Test: ELISA, peptide coated on plate, serum C3 detected with anti-C3 antibody; relative to A2-0 (SPE B C192S)

| Binder | binding ability relative to reference A2-0 [%] |
| --- | --- |
| GADGRNFYHVNWGWG [SPE B346~360 (as set forth in SEQ ID NO: 6)] | > 50 |
| ALGTGGGAGGFNGYQSAVVGIKP [SPE B376~398 (as set forth in SEQ ID NO: 8)] | > 50 |
